Data from patent US20100291137A1 (GlaxoSmithKline, published 2010).

Target: the molecule itself
Experiment: analytical ultracentrifugation and chemical cross-linking

B1: refolded NspA (recombinant mature NspA of Neisseria meningitidis strain H44/76, without the 19 amino acid signal peptide) (other)
chain: EGASGFYVQADAAHAKASSSLGSAKGFSPRISAGYRINDLRFAVDYTRYKNYKAPSTDFKLYSIGASAIYDFDTQSPVKPYLGARLSLNRASVDLGGSDSFSQTSIGLGVLTGVSYAVTPNVDLDAGYRYNYIGKVNTVKNVRSGELSAGVRVKF
B1: no binding.
